Measurements reported in publication PMC9054013, “FCHO controls AP2’s initiating role in endocytosis through a PtdIns(4,5)P2-dependent switch” (Science Advances, 2022).
Several values for one entry are separate records, joined by “and”; a condition that tells them apart may be missing. Equal entries are not always repeated. One block for each molecule: values may come before it.

Columns and labels:
AP2 core [1] = assay: BLI of AP2 core binding to immobilized GST-FCHO linkers; conditions: BLI equilibrium analysis, GST-linker on anti-GST biosensors, 25°C, near-physiological conditions, AP2 core closed
Procedure: Real-time kinetic measurements of AP2 core binding to immobilized GST-FCHO1 linker and GST-FCHO2 linker at 25°C were conducted using an Octet RED96 (Pall FortéBio). AP2 concentrations varied by twofold dilution series (13.5 to 0.8 and 10.0 to 0.2 μM, respectively). Samples and buffers were dispensed into 96-well microtiter plates (Greiner) at a volume of 200 μl per well. Anti-GST biosensors (Pall FortéBio) were incubated in the specific assay buffer for at least 30 min before loading with the appropriate GST-FCHO linker for 5 min, followed by blocking with GST-ARRS control for 10 min. Negative controls were analyzed with biosensors uniquely loaded with the GST-ARRS control. Every binding experiment consisted of three steps: incubation for 10 min in the specific assay buffer, followed by 15 min of incubation with AP2 in the same buffer (association phase), and then by 10 min of incubation with the same buffer without AP2 to measure AP2 off rate (dissociation phase). […]
Data were processed with the Octet Data Acquisition 7.0 software, individually fitted using ForteBio Analysis software 7.0, and subsequently further analyzed with the PRISM software (GraphPad) to determine equilibrium dissociation constants (KD). The maximum binding capacity of each biosensor was scaled with respect to each other, according to the molecular weight of the AP2 analyzed.

AP2 core [2] = assay: Liposome spin-downs / GSH Sepharose pull-down of AP2 core with GST-FCHO2 linker; type: biochemical; conditions: for increase in steady-state efficiency of AP2 membrane recruitment: GST-FCHO2 vs GST-ARRS control, densitometry, 3 independent experiments
Procedure: GST-FCHO2 WT linker or a nonbinding control (GST-ARRS control) at a final concentration of 30 μM was incubated at 4°C for 30 min with AP2 core at a concentration of 2.5 μM, in 95% HKT buffer with lysozyme (0.2 mg/ml) as a “carrier,” AEBSF (25 μg/ml), and 5 mM DTT. Core buffer (contributed by the purified AP2) was restricted to 5% of the volume. The mixture was then centrifuged briefly to remove any insoluble material. Samples were removed and added to either an equal volume of liposomes [containing phosphatidylcholine (PC)/phosphatidylethanolamine (PE), PC/PE/PS/PtdIns(4,5)P2, or PC/PE/PS/ PtdIns(4,5)P2/TGN38] or an equal bed volume of GSH Sepharose beads prewashed into HKT buffer. Final concentrations were therefore 15 μM (GST-FCHO2/ARRS) and 1.25 μM AP2. The mixtures were incubated for 30 min at 21°C with continuous gentle inversion, then the liposomes were pelleted by centrifugation, supernatants were removed, and the pellets resuspended in an equal volume before the addition of SDS loading dye and analysis by SDS-PAGE. The GSH Sepharose beads were washed three times with 1 ml of HKT supplemented with lysozyme (0.2 mg/ml), AEBSF (25 μg/ml), and 5 mM DTT, then resuspended in the same buffer, and analyzed by SDS-PAGE. All experiments were done in triplicate.

Kd (AP2 core [1]): ~10 µM and 9.8 µM
B1: FCHO2 linker: FCHO2 interdomain linker wt, residues 314 to 444, GST fusion (protein)
chain: NIPDVDEEGYSIKPETNQNDTKENHFYSSSDSDSEDEEPKKYRIEIKPMHPNNSHHTMASLDELKVSIGNITLSPAISRHSPVQMNRNLSNEELTKSKPSAPPNEKGTSDLLAWDPLFGPSLDSSSSSSLT
modifications: left off: GST, end not stated, kept
notes: FCHO2 interdomain linker wt, residues 314 to 444, GST fusion
ratio of FCHO2:AP2 on beads relative to PtdIns(4,5)P2-containing liposomes (AP2 core [2]; GST-FCHO2 linker 15 μM, AP2 core 1.25 μM, three independent experiments): ~ 20 fold
increase in steady-state efficiency of AP2 membrane recruitment (AP2 core [2]; PtdIns(4,5)P2-only liposomes): ~ 13%
increase in steady-state efficiency of AP2 membrane recruitment (AP2 core [2]; liposomes containing both PtdIns(4,5)P2 and cargo): ~ 22%

Kd (AP2 core [1]): ~10 µM and 8.5 µM
B2: FCHO1 linker: FCHO1 interdomain linker wt (N123C), residues 316 to 444, GST fusion (protein)
chain: TCPEVDEEGFTVRPDVTQNSTAEPSRFSSSDSDFDDEEPRKFYVHIKPAPARAPACSPEAAAAQLRATAGSLILPPGPGGTMKRHSSRDAAGKPQRPRSAPRTSSCAERLQSEEQVSKNLFGPPLESAF
modifications: left off: GST, end not stated, kept
notes: FCHO1 interdomain linker wt (N123C), residues 316 to 444, GST fusion
